What was measured:
[1] = target: the molecule itself; test: immunoprecipitation and SDS-PAGE, transfected 293EBNA cells
Source text: The biochemical properties of human VEGF-B₁₆₇ were examined in transfected human embryonic kidney 293EBNA cells (Invitrogen, Inc.). cDNA inserts encoding human VEGF-B₁₆₇ and human VEGF₁₆₅ [see Keck et al., Science, Vol. 246, pages 1309-312 (1989)] were individually cloned into the pREP7 expression vector (Invitrogen, Inc.). Human embryo kidney 293EBNA cells (expressing Epstein-Barr virus nuclear antigen-1) were transfected by transient transfection with the respective expression plasmids using calcium phosphate precipitation, and the cells were incubated for 48 hours. As a control, cells also were transfected with an expression vector containing the VEGF-B₁₆₇ cDNA in reverse orientation. Monolayers of cells were incubated in methionine-free and cysteine-free medium for 30 minutes followed by labeling with 100 μCi/ml [³⁵S]methionine and [³⁵S]cysteine (Promix, Amersham Inc.) in the same medium for 2 hours. […]
VEGF-B₁₆₇ was expressed in the cells transfected with the plasmids containing the VEGF-B₁₆₇ DNA. Aliquots of the culture supernatants from cells treated or untreated with heparin and detergent solubilized cell lysates were subjected to immunoprecipitation with the specific antipeptide antiserum to VEGF-B obtained as described in Example 8 and analyzed by SDS-PAGE under reducing conditions unless otherwise indicated. […]

human VEGF165 [2] = target: T1, human VEGF165 (human, UniProt P15692 27-191); test: coexpression in transfected cells, immunoprecipitation
T1 construct: mature; Expressed from cDNA in 293EBNA cells (pREP7) or Cos-1 cells (pSG5)
T1 sequence (P15692 other isoform, or with tags, fused parts or gaps): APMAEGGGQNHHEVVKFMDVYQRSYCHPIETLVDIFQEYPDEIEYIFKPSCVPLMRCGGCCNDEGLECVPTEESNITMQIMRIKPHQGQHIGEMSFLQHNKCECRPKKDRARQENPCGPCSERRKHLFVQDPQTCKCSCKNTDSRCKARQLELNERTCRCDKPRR
Source text: The biochemical properties of human VEGF-B₁₆₇ were examined in transfected human embryonic kidney 293EBNA cells (Invitrogen, Inc.). cDNA inserts encoding human VEGF-B₁₆₇ and human VEGF₁₆₅ [see Keck et al., Science, Vol. 246, pages 1309-312 (1989)] were individually cloned into the pREP7 expression vector (Invitrogen, Inc.). Human embryo kidney 293EBNA cells (expressing Epstein-Barr virus nuclear antigen-1) were transfected by transient transfection with the respective expression plasmids using calcium phosphate precipitation, and the cells were incubated for 48 hours. As a control, cells also were transfected with an expression vector containing the VEGF-B₁₆₇ cDNA in reverse orientation. Monolayers of cells were incubated in methionine-free and cysteine-free medium for 30 minutes followed by labeling with 100 μCi/ml [³⁵S]methionine and [³⁵S]cysteine (Promix, Amersham Inc.) in the same medium for 2 hours. The labeling medium was replaced with normal medium without serum, and labelled proteins were chased for 6 hours. Heparin was included during the chase when indicated (100 μg/ml). Media were collected after the chase period, and cells were solubilized in 10 mM Tris pH 7.5, 50 mM NaCl, 0.5% sodium deoxycholate, 0.5% Nonidet P-40, 0.1% SDS and 0.1 U/ml aprotinin. […]

human VEGF165 [3] = target: T1, human VEGF165; test: cotransfected Cos-1 cells; immunoprecipitation of media and lysates, reducing SDS-PAGE (FIG. 23B)
Experimental: cDNA inserts encoding mouse VEGF-B₁₈₆ and human VEGF₁₆₅ were cloned into the pSG5 expression vector [Green et al., Nucleic Acid Res., 16:369 (1988)]. Cos-1 cells were maintained in minimal essential medium (MEM) containing 10% fetal calf serum, 2 mM glutamine and appropriate antibiotics. For transfections, the cells were replated into 90 mm Petri dishes. The cells were transfected with the expression vectors, separately or in combination, using calcium phosphate precipitation and incubated for 36-48 hours. Monolayers of cells were incubated in medium free of methionine and cysteine for 30 min and then incubated in the same medium containing 100 μCi/ml of [³⁵S]-methionine and [³⁵S]-cysteine for 2 hours (Promix Amersham Inc.).
For the pulse-chase experiments, the cells were labeled for 30 minutes, washed twice with normal medium and then incubated for up to 6 hours in MEM without fetal calf serum. Media were collected after the chase period and the cells were solubilized in 10 mM Tris buffer pH 7.5 containing 50 mM NaCl, 0.5% deoxycholate, 0.5% nonidet P-40 and 0.1% SDS. Aliquots of the media and the cell lysates were subjected to immunoprecipitation using the specific antiserum to mouse VEGF-B from Example 8a and a specific antiserum to human VEGF commercially available from R&D Systems. The precipitates were analyzed by SDS-PAGE. […]

[4] = target: the molecule itself; test: SDS-PAGE and immunoblot of Sf21 culture medium
Experimental: Sf21 cells [see Vaughn et al., In Vitro, 13:213-17 (1977)] were infected with the baculovirus stocks of Example 10 at a multiplicity of infection of 10 virus particles per cell. The infected Sf21 cells were grown in roller flasks and seeded at a density of 2×10⁶ cells per ml of serum free medium (Sf900II, Gibco-BRL) for 96 hours. Culture media and cells were then harvested. Aliquots of the cell lysates and of the media were analyzed by SDS-PAGE. Total protein patterns were visualized by staining the gels with Coomassie Brilliant Blue and the presence of expressed VEGF-B isoforms were visualized by immunoblotting using specific antipeptide antibodies to human and mouse VEGF-B as described above in Example 8. […] Both proteins were retained intracellularly in the infected cells and not released into the medium. In contrast, mouse VEGF-B-₁₈₆ was readily secreted into the medium in a dimeric form.

binding result (human VEGF165 [2]) | binding result (human VEGF165 [3]) | Binder | binding result [1] | binding result [4]
binds |  | human VEGF-B167 (ligand, Expressed from cDNA in 293EBNA cells (pREP7) or in Sf9/Sf21 insect cells; it forms disulfide-linked homodimers and heterodimers with VEGF165; also called hVEGF-B167; vascular endothelial growth factor B) PVSQPDAPGHQRKVVSWIDVYTRATCQPREVVVPLTVELMGTVAKQLVPSCVTVQRCGGCCPDDGLECVPTGQHQVRMQILMIRYPSSQLGEMSLEEHSQCECRPKKKDSAVKPDSPRPLCPRCTQHHQRPDPRTCRCRCRRRSFLRCQGRGLELNPDTCRCRKLRR | binds | 
 | binds | murine VEGF-B186 (ligand, Expressed in Cos-1 cells (pSG5) or Sf21 insect cells; The form secreted from Cos-1 cells carries an unidentified covalent modification (Mr 32,000 against 24,000 in cells); it forms disulfide-linked homodimers and heterodimers with VEGF165; also called mVEGF-B186; mouse VEGF-B186) PVAQFDGPSHQKKVVPWIDVYARATCQPREVVVPLSMELMGNVVKQLVPSCVTVQRCGGCCPDDGLECVPTGQHQVRMQILMIQYPSSQLGEMSLEEHSQCECRPKKKESAVKPDRVAIPHHRPQPRSVPGWDSTPGASSPADIIHPTPAPGSSARLAPSAVNALTPGPAAAAADAAASSIAKGGA |  | binds

Reference: patent publication US20050064493A1 (LICENTIA, published 2005)
